Holding throughout (assay): SPR
Conditions in all cases: not given in the material (no Methods text)

One data set addresses MILI (PIWIL2) (mouse) (UniProt Q8CDG1).
A further data set concerns the target HILI (PIWIL2) (human) (UniProt Q8TC59).
Data set [1] addresses T1, EfPiwi (Ephydatia fluviatilis) (UniProt D5MRY8).
T1 sequence: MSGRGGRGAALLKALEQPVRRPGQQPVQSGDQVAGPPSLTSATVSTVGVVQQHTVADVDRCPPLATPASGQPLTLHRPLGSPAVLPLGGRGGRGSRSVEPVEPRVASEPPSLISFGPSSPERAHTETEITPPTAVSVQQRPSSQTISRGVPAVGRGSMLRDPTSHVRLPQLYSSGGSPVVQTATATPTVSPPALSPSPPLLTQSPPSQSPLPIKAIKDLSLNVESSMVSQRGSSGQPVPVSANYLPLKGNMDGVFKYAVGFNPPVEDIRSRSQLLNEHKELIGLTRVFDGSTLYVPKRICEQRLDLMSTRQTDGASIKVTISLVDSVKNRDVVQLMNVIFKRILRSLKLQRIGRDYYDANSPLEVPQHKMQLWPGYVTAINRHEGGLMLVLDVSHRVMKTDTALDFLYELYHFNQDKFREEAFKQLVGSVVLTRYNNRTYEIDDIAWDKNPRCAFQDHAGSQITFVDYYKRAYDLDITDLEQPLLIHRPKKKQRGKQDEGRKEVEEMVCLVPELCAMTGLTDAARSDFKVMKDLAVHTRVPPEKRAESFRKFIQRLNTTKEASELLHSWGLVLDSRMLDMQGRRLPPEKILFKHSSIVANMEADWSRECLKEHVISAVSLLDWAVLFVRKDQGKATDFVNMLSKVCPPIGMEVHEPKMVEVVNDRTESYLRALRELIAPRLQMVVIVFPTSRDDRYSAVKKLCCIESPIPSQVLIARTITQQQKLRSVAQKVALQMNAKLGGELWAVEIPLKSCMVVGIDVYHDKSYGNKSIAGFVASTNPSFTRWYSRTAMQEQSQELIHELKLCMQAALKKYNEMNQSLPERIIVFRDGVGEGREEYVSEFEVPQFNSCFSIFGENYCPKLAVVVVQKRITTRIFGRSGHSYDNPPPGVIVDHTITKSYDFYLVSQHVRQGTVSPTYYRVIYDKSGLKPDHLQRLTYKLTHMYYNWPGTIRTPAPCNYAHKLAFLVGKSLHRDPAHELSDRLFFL

Two substances from article doi:10.1101/2023.06.23.546240 can be followed below.

Sequence of HILI (PIWIL2) (human) (Q8TC59 whole entry): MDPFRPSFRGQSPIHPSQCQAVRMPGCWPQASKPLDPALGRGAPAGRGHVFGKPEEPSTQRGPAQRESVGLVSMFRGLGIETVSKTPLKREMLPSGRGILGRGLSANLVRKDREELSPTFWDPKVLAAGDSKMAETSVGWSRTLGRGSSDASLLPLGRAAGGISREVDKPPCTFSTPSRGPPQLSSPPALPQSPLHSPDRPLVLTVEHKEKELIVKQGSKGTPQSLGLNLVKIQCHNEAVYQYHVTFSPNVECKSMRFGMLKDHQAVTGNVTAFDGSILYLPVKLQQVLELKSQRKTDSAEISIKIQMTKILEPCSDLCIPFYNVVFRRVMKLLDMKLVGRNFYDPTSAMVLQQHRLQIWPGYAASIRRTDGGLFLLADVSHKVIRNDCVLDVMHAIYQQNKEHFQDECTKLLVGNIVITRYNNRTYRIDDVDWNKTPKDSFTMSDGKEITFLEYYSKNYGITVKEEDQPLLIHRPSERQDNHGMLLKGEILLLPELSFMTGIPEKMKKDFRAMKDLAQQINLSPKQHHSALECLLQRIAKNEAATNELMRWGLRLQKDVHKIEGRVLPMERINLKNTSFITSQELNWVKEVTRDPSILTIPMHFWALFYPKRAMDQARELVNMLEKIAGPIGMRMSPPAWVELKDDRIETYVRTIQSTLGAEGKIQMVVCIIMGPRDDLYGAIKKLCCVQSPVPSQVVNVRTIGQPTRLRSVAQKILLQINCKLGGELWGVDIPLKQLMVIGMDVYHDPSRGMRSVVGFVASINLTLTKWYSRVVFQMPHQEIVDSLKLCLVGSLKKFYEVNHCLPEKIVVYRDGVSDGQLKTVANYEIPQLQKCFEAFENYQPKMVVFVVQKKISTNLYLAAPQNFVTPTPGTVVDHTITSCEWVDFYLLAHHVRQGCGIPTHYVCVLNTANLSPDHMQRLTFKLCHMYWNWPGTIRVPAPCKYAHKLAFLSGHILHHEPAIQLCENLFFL
Sequence of MILI (PIWIL2) (mouse) (Q8CDG1 whole entry): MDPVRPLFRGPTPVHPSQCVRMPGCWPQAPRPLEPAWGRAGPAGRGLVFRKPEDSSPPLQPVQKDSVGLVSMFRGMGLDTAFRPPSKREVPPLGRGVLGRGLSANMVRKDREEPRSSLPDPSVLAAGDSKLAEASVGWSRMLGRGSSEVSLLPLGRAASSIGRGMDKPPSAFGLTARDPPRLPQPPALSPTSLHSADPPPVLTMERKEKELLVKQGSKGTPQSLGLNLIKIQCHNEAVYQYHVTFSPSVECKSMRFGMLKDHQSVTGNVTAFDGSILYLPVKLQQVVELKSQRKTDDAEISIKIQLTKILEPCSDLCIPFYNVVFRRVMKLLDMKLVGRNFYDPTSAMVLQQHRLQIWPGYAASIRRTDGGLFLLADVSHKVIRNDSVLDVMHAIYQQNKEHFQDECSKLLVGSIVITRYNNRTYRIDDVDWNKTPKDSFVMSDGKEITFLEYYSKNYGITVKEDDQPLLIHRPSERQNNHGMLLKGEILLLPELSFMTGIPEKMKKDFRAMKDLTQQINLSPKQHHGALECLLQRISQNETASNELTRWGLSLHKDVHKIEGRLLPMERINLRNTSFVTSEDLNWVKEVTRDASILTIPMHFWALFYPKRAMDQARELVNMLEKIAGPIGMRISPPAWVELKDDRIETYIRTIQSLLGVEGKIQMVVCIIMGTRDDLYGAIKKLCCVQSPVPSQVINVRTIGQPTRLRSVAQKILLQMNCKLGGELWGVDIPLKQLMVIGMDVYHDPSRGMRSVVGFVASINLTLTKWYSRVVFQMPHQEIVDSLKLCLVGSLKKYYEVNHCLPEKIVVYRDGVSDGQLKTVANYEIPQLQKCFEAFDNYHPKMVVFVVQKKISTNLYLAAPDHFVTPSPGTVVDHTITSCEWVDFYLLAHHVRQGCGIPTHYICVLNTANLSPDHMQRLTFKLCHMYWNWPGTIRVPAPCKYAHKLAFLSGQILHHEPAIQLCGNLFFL

On to “piRNA guide + seed-complementary (g2-g8) target”, for which the binding signal (fold higher affinity than EfPiwi) with MILI (PIWIL2) (mouse) and with HILI (PIWIL2) (human) was 6 each time.
In data set [1], “piRNA guide + target with g3-g4 dinucleotide mismatch” returned a binding signal (fold higher KD than MILI or HILI) of 20.
